{"source": "paper PMC5423696", "molecular_target": "LAMP1_(distal)-Fc (human)", "assay": "SPR", "note": "pKd: −log10 of the molar value."}
{"substance": "GP1_(LASV)-Fc (from UniProt P08669 75-237) (Fc fusion)", "values": [{"measurement": "pKd", "value": 7.82}]}
